Each block holds one binder with its values, some of them ahead of it.
Assays:
CD19 [1] = molecular target: T1, CD19 (human, UniProt P15391 20-556); test: flow cytometry on Raji cells (CD19+), FITC goat anti-human IgG Fab
T1 construct: whole, on cells; also called CD19^+ B cell lymphoma (Raji)
T1 sequence (looked up): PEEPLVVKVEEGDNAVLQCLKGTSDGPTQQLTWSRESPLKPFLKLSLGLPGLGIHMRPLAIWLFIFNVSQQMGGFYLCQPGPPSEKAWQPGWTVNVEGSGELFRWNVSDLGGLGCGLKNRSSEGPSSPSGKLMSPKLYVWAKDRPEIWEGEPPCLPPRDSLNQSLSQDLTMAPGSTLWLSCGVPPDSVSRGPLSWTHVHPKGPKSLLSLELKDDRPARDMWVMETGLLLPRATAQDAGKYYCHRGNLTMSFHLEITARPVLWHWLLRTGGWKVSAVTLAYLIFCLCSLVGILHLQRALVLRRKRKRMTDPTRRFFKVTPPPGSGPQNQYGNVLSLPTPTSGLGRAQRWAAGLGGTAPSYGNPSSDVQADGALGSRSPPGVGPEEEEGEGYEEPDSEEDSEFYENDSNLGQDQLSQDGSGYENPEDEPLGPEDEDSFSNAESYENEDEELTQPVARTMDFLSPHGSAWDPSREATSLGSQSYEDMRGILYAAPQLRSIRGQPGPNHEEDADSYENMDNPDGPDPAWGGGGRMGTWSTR
Experimental: (§1) Samples were analyzed with FITC conjugated Goat anti-Human IgG Fab antibody and flow cytometry.

EpCAM = molecular target: T2, EpCAM (human, UniProt P16422 24-314); test: flow cytometry on LNCaP cells (EpCAM+), FITC goat anti-human IgG Fab
T2 construct: whole, on cells; also called epithelial cell adhesion molecule; EpCAM^+ prostate cancer (LNCaP)
T2 sequence (looked up): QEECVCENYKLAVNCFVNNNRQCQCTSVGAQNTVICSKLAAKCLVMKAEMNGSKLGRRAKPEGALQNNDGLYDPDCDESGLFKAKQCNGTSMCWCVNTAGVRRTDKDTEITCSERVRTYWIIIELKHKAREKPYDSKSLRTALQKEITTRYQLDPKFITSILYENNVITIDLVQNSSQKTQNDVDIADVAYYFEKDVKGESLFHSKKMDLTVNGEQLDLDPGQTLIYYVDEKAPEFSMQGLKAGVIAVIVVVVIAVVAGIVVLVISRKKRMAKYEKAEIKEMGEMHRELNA
Experimental: as §1

PSMA = molecular target: T3, PSMA (human, UniProt Q04609 1-750); test: flow cytometry on LNCaP cells (PSMA+), FITC goat anti-human IgG Fab
T3 construct: whole, on cells; also called prostate-specific membrane antigen; PSMA^+ Prostate cancer (LNCaP)
T3 sequence (Q04609 whole entry): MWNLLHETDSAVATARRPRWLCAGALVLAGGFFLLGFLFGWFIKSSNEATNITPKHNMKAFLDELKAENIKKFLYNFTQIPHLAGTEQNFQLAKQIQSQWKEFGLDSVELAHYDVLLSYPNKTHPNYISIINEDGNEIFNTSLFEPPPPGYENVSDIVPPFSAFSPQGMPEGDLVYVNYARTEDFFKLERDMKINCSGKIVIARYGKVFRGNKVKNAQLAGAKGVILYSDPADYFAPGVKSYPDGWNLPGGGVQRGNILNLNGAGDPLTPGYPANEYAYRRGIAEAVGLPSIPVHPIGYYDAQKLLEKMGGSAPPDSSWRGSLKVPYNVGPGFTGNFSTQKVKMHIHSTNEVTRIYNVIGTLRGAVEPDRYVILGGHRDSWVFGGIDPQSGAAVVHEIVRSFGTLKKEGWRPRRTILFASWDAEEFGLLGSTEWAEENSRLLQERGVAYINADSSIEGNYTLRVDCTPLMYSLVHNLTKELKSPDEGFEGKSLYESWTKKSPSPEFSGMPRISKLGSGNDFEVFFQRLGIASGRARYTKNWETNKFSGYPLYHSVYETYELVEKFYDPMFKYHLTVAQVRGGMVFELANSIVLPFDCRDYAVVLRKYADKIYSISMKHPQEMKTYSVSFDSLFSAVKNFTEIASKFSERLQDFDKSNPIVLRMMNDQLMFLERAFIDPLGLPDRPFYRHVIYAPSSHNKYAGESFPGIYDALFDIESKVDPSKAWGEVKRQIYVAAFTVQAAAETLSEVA
Experimental: as §1

CD19 [2] = molecular target: T1, CD19; test: flow cytometry titration on Raji cells (CD19+), FITC goat anti-human IgG Fab
Experimental: (§2) FIG. 19B: binding activity to CD19⁺ B cells lymphoma (Raji). […] Fluorescent signal on cell surface was detected using flow cytometry.
(§3) Binding abilities of the BsAbs against CD3⁺ T cells (Jurkat) and CD19⁺ B cells lymphoma (Raji) were analyzed using flow cytometry.

CD3 = molecular target: T4, CD3 (human, UniProt P07766 23-207); test: flow cytometry titration on Jurkat cells (CD3+), FITC goat anti-human IgG Fab
T4 construct: whole, on cells; CD3 is a multi-chain complex; also called CD3 on CD3-positive T cells; CD3^+ T cells (Jurkat)
T4 sequence (P07766 23-207): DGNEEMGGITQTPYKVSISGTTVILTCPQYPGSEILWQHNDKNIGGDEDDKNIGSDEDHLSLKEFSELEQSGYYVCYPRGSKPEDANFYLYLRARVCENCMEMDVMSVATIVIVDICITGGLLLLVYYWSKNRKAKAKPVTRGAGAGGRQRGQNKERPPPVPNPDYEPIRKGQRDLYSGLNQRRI
Experimental: as §2, §3

B1: CTA03Fab/CTAT02scFv (bispecific antibody)
heavy: EVQLLESGGGLVQPGGSLRLSCAASGFTFSSFPMAWVRQAPGKGLEWVSTISTSGGRTYYRDSVKGRFTISRDNSKNTLYLQMNSLRAEDTAVYYCAKFRQYSGGFDYWGQGTLVTVSSASTKGPSVFPLAPSSKSTSGGTAALGCLVKDYFPEPVTVSWNSGALTSGVHTFPAVLQSSGLYSLSSVVTVPSSSLGTQTYICNVNHKPSNTKVDKKVEPKSCGGGSGGGEVKLQESGPGLVAPSQSLSVTCTVSGVSLPDYGVSWIRQPPRKGLEWLGVIWGSETTYYNSALKSRLTIIKDNSKSQVFLKMNSLQTDDTAIYYCAKHYYYGGSYAMDYWGQGTSVTVSSGGGGSGGGGSGGGGSDIQMTQTTSSLSASLGDRVTISCRASQDISKYLNWYQQKPDGTVKLLIYHTSRLHSGVPSRFSGSGSGTDYSLTISNLEQEDIATYFCQQGNTLPYTFGGGTKLEIT
light: DIQLTQPNSVSTSLGSTVKLSCTLSSGNIENNYVHWYQLYEGRSPTTMIYDDDKRPDGVPDRFSGSIDRSSNSAFLTIHNVAIEDEAIYFCHSYVSSFNVFGGGTKLTVLRQPKAAPSVTLFPPSSEELQANKATLVCLISDFYPGAVTVAWKADSSPVKAGVETTTPSKQSNNKYAASSYLSLTPEQWKSHRSYSCQVTHEGSTVEKTVAPTECS
notes: also called anti-CD3Fab/anti-CD19scFv; parent CTA03Fab/CTAT02scFv BsAb
binding result (CD19 [1]): binds

B3: CTA03Fab/CTAT05scFv (bispecific antibody)
heavy: EVQLLESGGGLVQPGGSLRLSCAASGFTFSSFPMAWVRQAPGKGLEWVSTISTSGGRTYYRDSVKGRFTISRDNSKNTLYLQMNSLRAEDTAVYYCAKFRQYSGGFDYWGQGTLVTVSSASTKGPSVFPLAPSSKSTSGGTAALGCLVKDYFPEPVTVSWNSGALTSGVHTFPAVLQSSGLYSLSSVVTVPSSSLGTQTYICNVNHKPSNTKVDKKVEPKSCGGGSGGGEVQLVQSGAEVKKPGASVKISCKTSGYTFTEYTIHWVKQASGKGLEWIGNINPNNGGTTYNQKFEDRATLTVDKSTSTAYMELSSLRSEDTAVYYCAAGWNFDYWGQGTTVTVSSGGGGSGGGGSGGGGSDIVMTQSPSSLSASVGDRVTITCKASQDVGTAVDWYQQKPGKAPKLLIYWASTRHTGVPDRFTGSGSGTDFTLTISSLQPEDFADYFCQQYNSYPLTFGGGTKLEIK
light: DIQLTQPNSVSTSLGSTVKLSCTLSSGNIENNYVHWYQLYEGRSPTTMIYDDDKRPDGVPDRFSGSIDRSSNSAFLTIHNVAIEDEAIYFCHSYVSSFNVFGGGTKLTVLRQPKAAPSVTLFPPSSEELQANKATLVCLISDFYPGAVTVAWKADSSPVKAGVETTTPSKQSNNKYAASSYLSLTPEQWKSHRSYSCQVTHEGSTVEKTVAPTECS
notes: also called antiCD3Fab/anti-PSMAscFv
binding result (PSMA): binds

B4: CTA03-02Fab/CTAT02-02scFv (bispecific antibody)
heavy: EVQLLESGGGLVQPGGSLRLSCAASGFTFSSFPMAWVRQAPGKGLEWVSTISTSGGRTYYRDSVKGRFTISRDNSKNTLYLQMNSLRAEDTAVYYCAKFRQYSGGFDYWGQGTLVTVSSASTKGPSVFPLAPSSKSTSGGTAALGCLVKDYFPEPVTVSWNSGALTSGVHTFPAVLQSSGLYSLSSVVTVPSSSLGTQTYICNVNHKPSNTKVDKKVEPKSCGGGSGGGEVKLQESGPGLVAPSQSLSVTCTVSGVSLPDYGVSWIRQPPRKGLEWLGVIWGSETTYYNSALKSRLTIIKDNSKSQVFLKMNSLQTDDTAIYYCAKHYYYGGSYAMDYWGQGTSVTVSSGGGGSGGGGSGGGGSDIQMTQTTSSLSASLGDRVTISCRASQDISKYLNWYQQKPEGTVKLLIYHTSRLHSGVPSRFSGSGSGTDYSLTISNLEQEDIATYFCQQGNTLPYTFGGGTKLEIT
light: DIQLTQPNSVSTSLGSTVKLSCTLSSGNIENNYVHWYQLYEGRSPTTMIYDDDKRPEGVPDRFSGSIDRSSNSAFLTIHNVAIEDEAIYFCHSYVSSFNVFGGGTKLTVLRQPKAAPSVTLFPPSSEELQANKATLVCLISDFYPGAVTVAWKADSSPVKAGVETTTPSKQSNNKYAASSYLSLTPEQWKSHRSYSCQVTHEGSTVEKTVAPTECS
notes: also called CTA03Fab(VLD57E)/CTAT02scFv(VLD41E)
binding result (CD19 [2]): binds
EC50 (read off the curve) (CD3): ~0.2 mg/L

B5: CTA03-02Fab/CTAT02-01scFv (bispecific antibody)
heavy: EVQLLESGGGLVQPGGSLRLSCAASGFTFSSFPMAWVRQAPGKGLEWVSTISTSGGRTYYRDSVKGRFTISRDNSKNTLYLQMNSLRAEDTAVYYCAKFRQYSGGFDYWGQGTLVTVSSASTKGPSVFPLAPSSKSTSGGTAALGCLVKDYFPEPVTVSWNSGALTSGVHTFPAVLQSSGLYSLSSVVTVPSSSLGTQTYICNVNHKPSNTKVDKKVEPKSCGGGSGGGEVKLQESGPGLVAPSQSLSVTCTVSGVSLPDYGVSWIRQPPRKGLEWLGVIWGSETTYYNSALKSRLTIIKDNSKSQVFLKMNSLQTDDTAIYYCAKHYYYGGSYAMDYWGQGTSVTVSSGGGGSGGGGSGGGGSDIQMTQTTSSLSASLGDRVTISCRASQDISKYLNWYQQKPDATVKLLIYHTSRLHSGVPSRFSGSGSGTDYSLTISNLEQEDIATYFCQQGNTLPYTFGGGTKLEIT
light: DIQLTQPNSVSTSLGSTVKLSCTLSSGNIENNYVHWYQLYEGRSPTTMIYDDDKRPEGVPDRFSGSIDRSSNSAFLTIHNVAIEDEAIYFCHSYVSSFNVFGGGTKLTVLRQPKAAPSVTLFPPSSEELQANKATLVCLISDFYPGAVTVAWKADSSPVKAGVETTTPSKQSNNKYAASSYLSLTPEQWKSHRSYSCQVTHEGSTVEKTVAPTECS
notes: also called CTA03Fab(VLD57E)/CTAT02scFv(VLG42A)
binding result (CD19 [2]): binds

More lines, now with the values ahead:

binding result (EpCAM): binds
B2: CTA03Fab/CTAT07scFv (bispecific antibody)
heavy: EVQLLESGGGLVQPGGSLRLSCAASGFTFSSFPMAWVRQAPGKGLEWVSTISTSGGRTYYRDSVKGRFTISRDNSKNTLYLQMNSLRAEDTAVYYCAKFRQYSGGFDYWGQGTLVTVSSASTKGPSVFPLAPSSKSTSGGTAALGCLVKDYFPEPVTVSWNSGALTSGVHTFPAVLQSSGLYSLSSVVTVPSSSLGTQTYICNVNHKPSNTKVDKKVEPKSCGGGSGGGEVQLVQSGPGLVQPGGSVRISCAASGYTFTNYGMNWVKQAPGKGLEWMGWINTYTGESTYADSFKGRFTFSLDTSASAAYLQINSLRAEDTAVYYCARFAIKGDYWGQGTLLTVSSGGGGSGGGGSGGGGSDIQMTQSPSSLSASVGDRVTITCRSTKSLLHSNGITYLYWYQQKPGKAPKLLIYQMSNLASGVPSRFSSSGSGTDFTLTISSLQPEDFATYYCAQNLEIPRTFGQGTKVELK
light: DIQLTQPNSVSTSLGSTVKLSCTLSSGNIENNYVHWYQLYEGRSPTTMIYDDDKRPDGVPDRFSGSIDRSSNSAFLTIHNVAIEDEAIYFCHSYVSSFNVFGGGTKLTVLRQPKAAPSVTLFPPSSEELQANKATLVCLISDFYPGAVTVAWKADSSPVKAGVETTTPSKQSNNKYAASSYLSLTPEQWKSHRSYSCQVTHEGSTVEKTVAPTECS
notes: also called antiCD3Fab/anti-EpCAMscFv

binding result (CD19 [2]): binds
B6: CTA03-01Fab/CTAT02-01scFv (bispecific antibody)
heavy: EVQLLESGGGLVQPGGSLRLSCAASGFTFSSFPMAWVRQAPGKGLEWVSTISTSGGRTYYRDSVKGRFTISRDNSKNTLYLQMNSLRAEDTAVYYCAKFRQYSGGFDYWGQGTLVTVSSASTKGPSVFPLAPSSKSTSGGTAALGCLVKDYFPEPVTVSWNSGALTSGVHTFPAVLQSSGLYSLSSVVTVPSSSLGTQTYICNVNHKPSNTKVDKKVEPKSCGGGSGGGEVKLQESGPGLVAPSQSLSVTCTVSGVSLPDYGVSWIRQPPRKGLEWLGVIWGSETTYYNSALKSRLTIIKDNSKSQVFLKMNSLQTDDTAIYYCAKHYYYGGSYAMDYWGQGTSVTVSSGGGGSGGGGSGGGGSDIQMTQTTSSLSASLGDRVTISCRASQDISKYLNWYQQKPDATVKLLIYHTSRLHSGVPSRFSGSGSGTDYSLTISNLEQEDIATYFCQQGNTLPYTFGGGTKLEIT
light: DIQLTQPNSVSTSLGSTVKLSCTLSSGNIENNYVHWYQLYEGRSPTTMIYDDDKRPDAVPDRFSGSIDRSSNSAFLTIHNVAIEDEAIYFCHSYVSSFNVFGGGTKLTVLRQPKAAPSVTLFPPSSEELQANKATLVCLISDFYPGAVTVAWKADSSPVKAGVETTTPSKQSNNKYAASSYLSLTPEQWKSHRSYSCQVTHEGSTVEKTVAPTECS
notes: also called CTA03Fab(VLG58A)/CTAT02scFv(VLG42A)

EC50 (read off the curve) (CD19 [2]): ~1 mg/L
B7: CTA03-01Fab/CTAT02-02scFv (bispecific antibody)
heavy: EVQLLESGGGLVQPGGSLRLSCAASGFTFSSFPMAWVRQAPGKGLEWVSTISTSGGRTYYRDSVKGRFTISRDNSKNTLYLQMNSLRAEDTAVYYCAKFRQYSGGFDYWGQGTLVTVSSASTKGPSVFPLAPSSKSTSGGTAALGCLVKDYFPEPVTVSWNSGALTSGVHTFPAVLQSSGLYSLSSVVTVPSSSLGTQTYICNVNHKPSNTKVDKKVEPKSCGGGSGGGEVKLQESGPGLVAPSQSLSVTCTVSGVSLPDYGVSWIRQPPRKGLEWLGVIWGSETTYYNSALKSRLTIIKDNSKSQVFLKMNSLQTDDTAIYYCAKHYYYGGSYAMDYWGQGTSVTVSSGGGGSGGGGSGGGGSDIQMTQTTSSLSASLGDRVTISCRASQDISKYLNWYQQKPEGTVKLLIYHTSRLHSGVPSRFSGSGSGTDYSLTISNLEQEDIATYFCQQGNTLPYTFGGGTKLEIT
light: DIQLTQPNSVSTSLGSTVKLSCTLSSGNIENNYVHWYQLYEGRSPTTMIYDDDKRPDAVPDRFSGSIDRSSNSAFLTIHNVAIEDEAIYFCHSYVSSFNVFGGGTKLTVLRQPKAAPSVTLFPPSSEELQANKATLVCLISDFYPGAVTVAWKADSSPVKAGVETTTPSKQSNNKYAASSYLSLTPEQWKSHRSYSCQVTHEGSTVEKTVAPTECS
notes: also called CTA03Fab(VLG58A)/CTAT02scFv(VLD41E)
